Numbering of substitutions follows the chain as printed. Numbers in names are those of the source.

The assay has as its system p1. As to the kind of experiment: p1 copy number by p1-encoded mKate2 fluorescence. The class given is cell-based, S. cerevisiae. Conditions: OR-Y24, measured in triplicate. A digest of the protocol:
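Copy number was inferred from p1-encoded mKate2 fluorescence in saturated OR-Y24 cultures (triplicate), calibrated linearly against qPCR of p1 leu2 relative to genomic LEU3.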

B1: V385W: TP-DNAP1 variant (protein)
chain: MDYKDKALNDLRNVYADFDSLPLDFRQILIKDRATLLQKEDVEKKILERQEDAKKYAEYLKQSEIPERISLPNIKRHKGVSISFEETSEDMVLEPRPFIFDGLNIRCFRRETIFSLKNKILNMVKESSSFKNVSRQSVSFMYFKIFNKGKVIASTKSVNIYEDKIDERLEDLCNNFDDVLKKIIDVTYGYESLFVSETYSYVIFYAKSIYFPQPRCVNNWGNNIPNILTFDSFKLFTANKNNVSCIKQCSRFLWQKDFNTLEEMIEYKNGNICIVTPQLHINDVRDIKSFNDIRLYSESPIKTFSVIDNTITYLFYFKEHLGVIFNITKSRHDRRVTKFSPLSKFSDVKNITVCFDIESYFDPEKESNQVNIPFICCASIIYNKWIGNIVDFEGRDCVAQMIEYVVDICGELNISSVELIAHNGGGYDFHYILSSMYNPAAIKNILIRNNSFISFNFAHDGVKFSVKDSYSFLLCSLANASKAFLNEETFKKTDFPHHDLKTADDLYKVYKEWSSVNTEINHVVEKEKLLITSEHIVNFTKNDKSKTLIEWSKDYCRNDVLVLSKVWLEFKNAVEDIFNCELVDQTMTLAGLSYKLFQANMPFDVELRHPNKEDYFNMREALIGGRCISVNGIYKDVLCLDVKSLYPASMAFYDQPYGSFKRVSSRPKDELGIYYVRVTPNRNNKSNFFPIRSHNKITYNNFEESTYIAWYTNVDIDIGLSEGHNIEYIPFDSYGNIGYSWSKKGKIFEKYIKDVLYKLKIKYEKQNNKVKRNVIKIIMNSLWGKFAQKWVNFEYFIKSEDDIDFESEEAYKIWDTDFMLIKKIKESTYSSKPIQNGVFTLSWARYHMKSIWDAGAKEGAECIYSDTDSIFVHKEHFKKNAKFMLNGLKVPIIGSEVGQLELECEFDKLLCAGKKQYMGFYTYFQDGKPCIKEKKRFKGIPSNYIIPELYAHLLSGADKEAKIQFLKFRREWGSVKGYIENKTVKAT
B1: the “Mean fold-increase over w.t. (p1 copy number)” value (from here on “Mean fold-increase”) is on record as 1.41 fold.

B2: D407C: TP-DNAP1 variant (protein)
chain: B1 chain with W385V, D407C
As to B2, the “Mean fold-increase” value is reported as 2.26 fold.

B3: D407G: TP-DNAP1 variant (protein)
chain: B1 chain with W385V, D407G
Turning to B3, the “Mean fold-increase” value was 2.53 fold.

B4: D407H: TP-DNAP1 variant (protein)
chain: B1 chain with W385V, D407H
As to B4, the “Mean fold-increase” value came out at 2.57 fold.

B5: G410L: TP-DNAP1 variant (protein)
chain: B1 chain with W385V, G410L
Turning to B5, the “Mean fold-increase” value came out at 2.57 fold.

B6: R395P: TP-DNAP1 variant (protein)
chain: B1 chain with W385V, R395P
As for B6, the “Mean fold-increase” value is on record as 1.91 fold.

B7: G410I: TP-DNAP1 variant (protein)
chain: B1 chain with W385V, G410I
On to B7, for which the “Mean fold-increase” value was found to be 2.57 fold.

B8: D407M: TP-DNAP1 variant (protein)
chain: B1 chain with W385V, D407M
In the case of B8, the “Mean fold-increase” value is 2.71 fold.

B9: G410M: TP-DNAP1 variant (protein)
chain: B1 chain with W385V, G410M
As to B9, the “Mean fold-increase” value was determined as 2.55 fold.

B10: G410Q: TP-DNAP1 variant (protein)
chain: B1 chain with W385V, G410Q
On to B10, for which the “Mean fold-increase” value came to 2.2 fold.

B11: D407A: TP-DNAP1 variant (protein)
chain: B1 chain with W385V, D407A
In the case of B11, the “Mean fold-increase” value is on record as 2.25 fold.

B12: G387H: TP-DNAP1 variant (protein)
chain: B1 chain with W385V, G387H
Turning to B12, the “Mean fold-increase” value was found to be 1.57 fold.

B13: V406Q: TP-DNAP1 variant (protein)
chain: B1 chain with W385V, V406Q
In the case of B13, the “Mean fold-increase” value came out at 2.16 fold.

B14: D407T: TP-DNAP1 variant (protein)
chain: B1 chain with W385V, D407T
With B14, the “Mean fold-increase” value is recorded as 3.95 fold.

B15: G410H: TP-DNAP1 variant (protein, listed as Kluyveromyces lactis)
chain: B1 chain with W385V, G410H
For the molecule B15, the “Mean fold-increase” value worked out at 2.19 fold.

B16: G410K: TP-DNAP1 variant (protein)
chain: B1 chain with W385V, G410K
Regarding B16, the “Mean fold-increase” value amounted to 2.53 fold.

B17: D407V, S415T: TP-DNAP1 variant (protein)
chain: B1 chain with W385V, D407V, S415T
As to B17, the “Mean fold-increase” value is listed as 1.95 fold.

B18: I287M: TP-DNAP1 variant (protein, listed as Kluyveromyces lactis)
chain: B1 chain with I287M, W385V
Take B18: the “Mean fold-increase” value is reported as 2.39 fold.

B19: G410E: TP-DNAP1 variant (protein)
chain: B1 chain with W385V, G410E
In the case of B19, the “Mean fold-increase” value is 2.37 fold.

B20: S289K: TP-DNAP1 variant (protein, listed as Kluyveromyces lactis)
chain: B1 chain with S289K, W385V
As to B20, the “Mean fold-increase” value is on record as 2.02 fold.

B21: V406C: TP-DNAP1 variant (protein)
chain: B1 chain with W385V, V406C
For B21, the “Mean fold-increase” value worked out at 2.34 fold.

B22: D407F: TP-DNAP1 variant (protein)
chain: B1 chain with W385V, D407F
Turning to B22, the “Mean fold-increase” value is listed as 2.28 fold.

B23: G410R: TP-DNAP1 variant (protein)
chain: B1 chain with W385V, G410R
As to B23, the “Mean fold-increase” value worked out at 2.87 fold.

Source of the values: patent US20230242902A1, “A HIGHLY ERROR-PRONE […] R[…] FOR TARGETED CONTINUOUS EVOLUTION IN VIVO” (The Regents of the University of California, priority 2017, published 2023).
